Test results from US20100317083A1.

Tests used:
[1] = biological target: human IgG3 purified from human plasma (human) (UniProt P01860); experiment: SPR (BIAcore), IgG3 immobilized, EndoS(E235Q) injected, deglycosylated IgG flow cell as reference
[2] = biological target: human IgG3 purified from human plasma (human) (UniProt P01860); experiment: cell-based or functional assay

Sequence of UniProt P01860 (P01860 whole entry, form in doubt): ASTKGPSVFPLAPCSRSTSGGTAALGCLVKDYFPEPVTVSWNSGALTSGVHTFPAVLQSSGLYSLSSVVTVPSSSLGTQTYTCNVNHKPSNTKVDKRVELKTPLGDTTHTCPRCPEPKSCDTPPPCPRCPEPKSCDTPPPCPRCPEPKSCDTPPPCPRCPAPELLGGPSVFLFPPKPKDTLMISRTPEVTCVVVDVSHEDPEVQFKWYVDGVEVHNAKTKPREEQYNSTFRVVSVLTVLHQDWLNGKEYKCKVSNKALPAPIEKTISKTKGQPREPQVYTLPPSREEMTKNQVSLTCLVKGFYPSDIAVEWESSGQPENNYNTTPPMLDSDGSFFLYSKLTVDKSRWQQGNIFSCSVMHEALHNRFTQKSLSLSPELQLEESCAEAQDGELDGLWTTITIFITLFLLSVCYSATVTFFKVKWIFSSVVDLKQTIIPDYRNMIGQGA

Substance | Kd [1] | koff [1] | kon [1] | SDS-PAGE migration of IgG after incubation with EndoS; LCA lectin blot [2]
EndoS(E235Q), modified EndoS polypeptide lacking IgG endoglycosidase activity (from UniProt Q99Y92 37-995) (enzyme) | 83 nM | 0.0089 s⁻¹ | 107000 M⁻¹ s⁻¹ | 
EndoS (Endoglycosidase S) from S. pyogenes AP1, recombinant, without GST (from UniProt Q99Y92 37-995) (enzyme) |  |  |  | 3 kDa
